Results reported in IntAct's records for PubMed 21070972.

B1: tRNA endonuclease ANKZF1 (Mus musculus), Q80UU1 (parent)
chain: MAKPAGDAAVGSRSGELFLPSVSSSATSPAPSAAPAPASVSLLSLNGEAPLIRGLSLVSQAPGEALAWAPRTSCPGENTSSGGKVSPYSLEISEKLFCSACDQIFQNHQEQREHYKLDWHRFNLKQRLKNKPLLSASDFEQQSSTGDLSSISGSDDTDSSSEEDLLPLDEGRAESEKPNRPPGFYPHRVLFKNAQGQFLYAYRCVLGPHQIPPEKAELLLQNLQNGGPRYYVVLMAAAGHFAGAIFQGREVVAHKTFHRYTVRAKRGTAQGLQDAHGRASRSAGANLRRYNEAMLYKDVRNLLAGPIWSKALGEAETVLFRAPRSGRSLFFGGQGAPLQRDDPRLWDIPLTTRRPTFGELQRVLHKLTTLQVYDEDPREMVRFHSPETHWKPVREERKKDTEKEKTKVPSDANKPLGQDEEPLKQGSESQEEDGSEVELELVELTLGTLDLREFEVLPKRRRRRKKKERSQEQQCGAHGPLPQQPQDEPFSQPTQEVETPLDTLVYEAKAPGQPELWDTLLAACRAGEVEVLKLQLATGLVDPGVKSLLNAPLGSGGFTLLHAAAAAGRGLVVRLLLEAGADPTVQDSRARPPYTVAADKSTRNEFRRFMEKNLDAYDYNKARVPGPLTQEMEARQATRKKEQKAARRQREQQQRKQREQEEQEQEEQRRFAALSDREKRALAAERRLAAQLGAPSPPVPDSAVASAGRCWSCGVSLQGLIPFHYLDFSFCSTRCLRDHRSQAGRPSS
B2: Cell division control protein 48 (Saccharomyces cerevisiae), P25694 (parent)
chain: MGEEHKPLLDASGVDPREEDKTATAILRRKKKDNMLLVDDAINDDNSVIAINSNTMDKLELFRGDTVLVKGKKRKDTVLIVLIDDELEDGACRINRVVRNNLRIRLGDLVTIHPCPDIKYATRISVLPIADTIEGITGNLFDVFLKPYFVEAYRPVRKGDHFVVRGGMRQVEFKVVDVEPEEYAVVAQDTIIHWEGEPINREDEENNMNEVGYDDIGGCRKQMAQIREMVELPLRHPQLFKAIGIKPPRGVLMYGPPGTGKTLMARAVANETGAFFFLINGPEVMSKMAGESESNLRKAFEEAEKNAPAIIFIDEIDSIAPKRDKTNGEVERRVVSQLLTLMDGMKARSNVVVIAATNRPNSIDPALRRFGRFDREVDIGIPDATGRLEVLRIHTKNMKLADDVDLEALAAETHGYVGADIASLCSEAAMQQIREKMDLIDLDEDEIDAEVLDSLGVTMDNFRFALGNSNPSALRETVVESVNVTWDDVGGLDEIKEELKETVEYPVLHPDQYTKFGLSPSKGVLFYGPPGTGKTLLAKAVATEVSANFISVKGPELLSMWYGESESNIRDIFDKARAAAPTVVFLDELDSIAKARGGSLGDAGGASDRVVNQLLTEMDGMNAKKNVFVIGATNRPDQIDPAILRPGRLDQLIYVPLPDENARLSILNAQLRKTPLEPGLELTAIAKATQGFSGADLLYIVQRAAKYAIKDSIEAHRQHEAEKEVKVEGEDVEMTDEGAKAEQEPEVDPVPYITKEHFAEAMKTAKRSVSDAELRRYEAYSQQMKASRGQFSNFNFNDAPLGTTATDNANSNNSAPSGAGAAFGSNAEEDDDLYS
partner: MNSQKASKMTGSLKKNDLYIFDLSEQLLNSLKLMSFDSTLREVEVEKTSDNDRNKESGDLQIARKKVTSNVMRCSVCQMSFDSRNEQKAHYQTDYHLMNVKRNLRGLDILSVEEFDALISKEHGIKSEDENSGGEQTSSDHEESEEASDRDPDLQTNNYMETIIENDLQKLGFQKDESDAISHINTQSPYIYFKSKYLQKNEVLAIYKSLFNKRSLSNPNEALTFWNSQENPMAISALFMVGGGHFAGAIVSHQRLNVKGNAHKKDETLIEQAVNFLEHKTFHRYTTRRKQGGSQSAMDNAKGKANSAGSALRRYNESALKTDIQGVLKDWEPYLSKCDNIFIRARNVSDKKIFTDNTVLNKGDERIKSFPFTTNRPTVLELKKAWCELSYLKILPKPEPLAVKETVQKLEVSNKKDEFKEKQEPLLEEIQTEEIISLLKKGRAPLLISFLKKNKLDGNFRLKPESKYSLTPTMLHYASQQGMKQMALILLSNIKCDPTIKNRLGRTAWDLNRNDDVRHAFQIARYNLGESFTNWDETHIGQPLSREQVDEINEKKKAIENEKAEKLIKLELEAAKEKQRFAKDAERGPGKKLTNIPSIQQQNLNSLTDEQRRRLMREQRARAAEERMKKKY

Variants of: B1
Conditions: with tera_mouse Vcp

effect of a mutation on the interaction	Variant
decreasing interaction strength	E685A;R686A;R687A

Variants of: B2
Conditions: with vms1_yeast VMS1, Q04311

effect of a mutation on the interaction	Variant
decreasing interaction strength	S565E
